Consider two substances from patent US20180030111A1.

For assay [1], the target named is FcgRIIIa receptor (CD16a) (human) (UniProt P08637). The assay can be described thus: cell-based or functional assay.
The target in assay [2] is FcgRIIIa receptor (CD16a) on human NK cells (human) (UniProt P08637). Put plainly: cell-based or functional assay.
Assay [3] deals with C1q complement (rabbit serum as complement source) (rabbit). Put plainly: cell-based or functional assay.
In assay [4] the target is FcgRIIIa receptor (CD16a) on human NK cells (human) (UniProt P08637). The assay can be described thus: cell-based or functional assay. This is another data set of the same source.
The target of assay [5] is CD64 (UniProt P12314). The assay can be described thus: ELISA, purified IgG on coated receptor, ratio against wild-type.
The target of assay [6] is CD32aR (FcgRIIa receptor, R at position 131) (human) (UniProt P12318). The assay is described as above.
In assay [7] the target is CD32aH (FcgRIIa receptor, H at position 131) (human) (UniProt P12318). Described as above.
Assay [8] has as its target CD32b (FcgRIIb receptor) (human) (UniProt P31994). The description is as above.

Sequence of FcgRIIIa receptor (CD16a) on human NK cells (human) (P08637 17-254): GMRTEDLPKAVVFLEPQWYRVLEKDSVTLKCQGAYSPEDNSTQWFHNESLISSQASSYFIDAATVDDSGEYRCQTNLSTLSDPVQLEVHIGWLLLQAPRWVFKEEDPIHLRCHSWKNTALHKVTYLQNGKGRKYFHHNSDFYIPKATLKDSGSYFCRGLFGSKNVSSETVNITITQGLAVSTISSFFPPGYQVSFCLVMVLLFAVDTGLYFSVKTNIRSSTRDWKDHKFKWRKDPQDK
Sequence of FcgRIIIa receptor (CD16a) (human) (P08637 17-254): as above
Sequence of CD32aH (FcgRIIa receptor, H at position 131) (human) (P12318 34-217): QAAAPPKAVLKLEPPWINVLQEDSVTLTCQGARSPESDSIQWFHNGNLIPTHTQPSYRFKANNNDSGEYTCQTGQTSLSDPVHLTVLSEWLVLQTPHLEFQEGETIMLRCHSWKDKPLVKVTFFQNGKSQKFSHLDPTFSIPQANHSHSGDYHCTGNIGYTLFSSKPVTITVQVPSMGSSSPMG
Sequence of CD64 (P12314 16-288 limits assumed): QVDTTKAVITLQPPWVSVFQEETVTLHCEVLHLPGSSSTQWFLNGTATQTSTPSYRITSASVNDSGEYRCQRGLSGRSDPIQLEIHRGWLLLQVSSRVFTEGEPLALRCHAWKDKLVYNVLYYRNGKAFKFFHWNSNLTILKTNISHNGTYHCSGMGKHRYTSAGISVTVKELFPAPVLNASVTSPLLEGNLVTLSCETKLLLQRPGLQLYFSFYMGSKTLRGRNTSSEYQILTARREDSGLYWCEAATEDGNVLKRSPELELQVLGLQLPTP
Sequence of CD32b (FcgRIIb receptor) (human) (P31994 46-217): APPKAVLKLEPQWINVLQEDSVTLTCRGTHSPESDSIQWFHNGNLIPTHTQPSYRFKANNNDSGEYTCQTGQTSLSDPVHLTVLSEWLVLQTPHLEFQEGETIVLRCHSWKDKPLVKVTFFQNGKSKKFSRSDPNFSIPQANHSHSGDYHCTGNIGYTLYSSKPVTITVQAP

For the substance IgG-WT (antibody), in assay [1], the ADCC EC50: Antibody concentration (ng/ml) giving 50% lysis of an internal control was 12.3 ng/mL and the ADCC, Ratio [WT]/[antibody] is 1.

Turning to “anti-CD20 IgG variant K3B-90 (V308A, K334R, A378V, K447N) (antibody)”, in assay [2], the ADCC came out at 0.6. In assay [3], the CDC is 20.4; the CDC, Antibody concentration (ng/ml) giving 50% lysis of an internal control amounted to 23.1 ng/mL; the CDC, Ratio [WT]/[antibody] worked out at 11.3. Besides, in assay [4], the ADCC, EC50: Antibody concentration (ng/ml) giving 50% maximum lysis of an internal control worked out at 0.75 ng/mL and the ADCC, Ratio [WT]/[antibody] worked out at 0.6. Moreover, the ELISA ratio (purified antibodies) in assay [5] stood at 1.5. Moreover, in assay [6], the ELISA ratio (purified antibodies) stood at 1.2. Besides, the ELISA ratio (purified antibodies) in assay [7] came to 1.2. In addition, the ELISA ratio (purified antibodies) in assay [8] is 1.1.
